Reference: patent US20070009927A1 (published 2007)

Target: T1, Sizn1 bait (full-length Sizn1 coding sequence in pGBKT7) (mouse, UniProt Q9CZA5 1-402)
T1 construct: Yeast two-hybrid bait in AH109 cells; also called Sizn bait construct; Sizn1 as a bait; not shown: fusion partner supplied by vector pGBKT7 (Clontech)
Experiment: yeast two-hybrid screen of an E11 mouse library

T1 sequence (Q9CZA5 whole entry, the tested form may be a part): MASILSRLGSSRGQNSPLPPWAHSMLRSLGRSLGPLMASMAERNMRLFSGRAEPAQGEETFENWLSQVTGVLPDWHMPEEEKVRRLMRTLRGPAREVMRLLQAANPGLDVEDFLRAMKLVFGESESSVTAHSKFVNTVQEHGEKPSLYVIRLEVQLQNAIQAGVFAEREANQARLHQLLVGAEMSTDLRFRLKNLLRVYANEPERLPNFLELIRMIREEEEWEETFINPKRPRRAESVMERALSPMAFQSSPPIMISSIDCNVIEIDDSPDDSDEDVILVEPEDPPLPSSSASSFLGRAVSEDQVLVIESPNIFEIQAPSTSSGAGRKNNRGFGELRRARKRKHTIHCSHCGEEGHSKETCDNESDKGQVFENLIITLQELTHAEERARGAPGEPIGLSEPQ

- binding result: binds
B1: amino acids 382-495 of Smad6 corresponding to the MH2 domain of Smad6 (other, mouse, UniProt O35182 382-495, looked up)
chain: RRTRSKIGFGILLSKEPDGVWAYNRGEHPIFVNSPTLDAPGGRALVVRKVPPGYSIKVFDFERSGLLQHADAAHGPYDPHSVRISFAKGWGPCYSRQFITSCPCWLEILLNNHR
notes: Positive prey clone of the yeast two-hybrid screen; also called Smad6 MH2 domain; not shown: library fusion partner of the Matchmaker3 two-hybrid prey vector; not described
